Here are results for three molecules from patent US20140248684A1, “COMPOSITIONS AND METHODS FOR THE PRODUCTION AND USE OF HUMAN CHOLINESTERASES” (priority 2011, published 2014).

A word on the LD50: it is the dose expected to kill half of the subjects tested. In general, Km refers to the substrate concentration at which the rate is half of its maximum.

Entries after “also recorded” stand apart in the source; their conditions may differ. Like-named read-outs stand apart in the source and are kept apart here.

One data set concerns guinea pigs. In words: Succinylcholine lethality in guinea pigs. It is filed as in vivo. The conditions noted are these: intravenous. From the text: To further understand the effect and kinetics of BChE-mediated SC detoxification using continuous vital sign monitoring, the inventors moved to a larger rodent model of SC toxicity. […] At no point following loss of measurable pulse and venous oxygen saturation did these signs return in animals receiving SC 0.9% saline.

The next data set relates to mice. The conditions noted are these: mice (Lewis, 1996); cited from earlier work.
For data set [1] the following is noted: reported value (Sun et al., 2002); read-out: KM, cocaine hydrolysis; cited from earlier work.
The conditions of data set [2]: previously published (Lockridge, 1990), thioester analog assay, cited from earlier work.
Data set [3] can be described thus: Succinylcholine hydrolase activity assay (96-well, choline oxidase/peroxidase). It is filed as biochemical. The procedure:
Assay of butyrylcholine hydrolysis followed the method of Ellman as described in (Geyer et al., 2010). Succinylcholine hydrolase activity was monitored by the method of George and co-workers (George et al., 1988) with modifications to fit a 96-well plate format. Briefly, our standard succinylcholine-hydrolysis buffer contained 100 mM NaH2PO4/Na2HPO4 buffer pH 7.5, 0.77 mM phenol, 0.15 mM 4-aminoantipyrine, 1 U/mL choline oxidase, and 1.2 U/mL horse raddish peroxidase type I. Appropriate volumes of 10× stock solutions (in 100 mM NaH2PO4/Na2HPO4 buffer pH 7.5) were pre-mixed and dispensed at 160 μL aliquotes onto 96-well plates followed by addition of the substrate succinylcholine chloride (20 μl, final concentrations as indicated). Reactions were started by addition of pBChE (4.74 nM) to yield a final well volume of 200 μl. Hydrolysis was monitored by recording absorbance changes at 500 nm. Self hydrolysis rates were measured on samples that contained no enzyme and were subtracted from the enzymatically catalyzed reaction rates. A choline standard curve was similarly created by using the same assay except that choline chloride replaced succinylcholine (final concentration range of 10-100 μM).
Kinetic analysis was done according to Radic et al. (Radic et al., 1993) as follows. Initial enzyme velocity, V0, was plotted as a function of substrate concentration and the results were fitted by nonlinear regression using GraphPad Prism to the following equation: […]
where [SC] is the concentration of SC, Vmax is maximal velocity, KM is the Michaelis-Menten constant, KSS is the dissociation constant of substrate from the enzyme's peripheral binding site, and b a factor that reflect the efficiency of hydrolysis of the substrate in the presence of another substrate molecule bound at the peripheral site (with substrate activation when b>1).

The subject of data set [4] is SC-induced apnea. In words: Reversal of succinylcholine-induced apnea in mice. It is filed as in vivo, Male FVB/N mice (Mus musculus). The procedure:
Mouse experiments were conducted as follows. Male FVB/N mice (Mus musculus, 8-12 weeks old) were anesthetized by injection of ketamine/xylazine/acepromazide cocktail at the dose of 0.05 mL per 25 g of total body weight (concentrations were, respectively 21 mg/mL, 2.4 mg/mL, and 0.3 mg/mL). Anesthetized mice were assessed for respiratory rate by counting respirations for 30 seconds using a Littman model 3000 electronic stethoscope placed on the mouse left mid axillary line and extrapolating the per minute rate. Mice were then injected intravenously (tail vein) with 1 mg/kg succinylcholine (time 0 min). At time+3 min mice were injected with pBChE (0.6 mg/kg, ˜15 Upper animal) in 0.9% saline (or 0.9% saline vehicle control) and respiratory rate was obtained as above at the indicated time points. At time+15 minutes all surviving mice were euthanized by CO2 asphyxiation and subsequent cervical dislocation. At no time during the experiment did the mice receive any other therapy including, but not limited to, airway protection/management, artificial ventilations, compressions, or any pharmacological assistance.
Statistical analyses were carried out using the GraphPad Prism software. Log-rank (Mantel-Cox) test was used to determine significance of the difference between survival curves.

Data set [5] concerns SC-induced apnea. In words: Reversal of succinylcholine-induced apnea in guinea pigs. It is filed as in vivo, Male Hartley guinea pigs (Cavia porcellus). The procedure:
Guinea pig experiments were conducted as follows. Male Hartley guinea pigs (Cavia porcellus, 8 weeks old) were anesthetized with 90 mg/kg ketamine and 10 mg/kg xylazine. Once anesthetized, baseline heart rate (beats per minute) and Sp02 (%) were obtained using a Surgivet Plus Veterinary Anesthesia and Monitoring Module, model #V3404. Guinea pigs were then injected intravenously (leg vein) with 0.334 mg/kg SC (time 0). Heart rate and Sp02 were obtained every minute throughout the course of the experiment. At time+1 min, groups of three apneic guinea pigs were injected with either pBChE (0.19 mg/kg, ˜48 Upper animal) in 0.9% saline (or 0.9% saline vehicle control). At time+15 minutes all surviving guinea pigs were euthanized by CO2 asphyxiation and subsequent cervical dislocation. As above, guinea pigs received no additional care or therapy during experimentation.
Statistical significance of differences between means of heart rate and Sp02 was tested using 1-way analysis of variance (ANOVA) followed by Bonferronits Multiple Comparison Test.

Where [6] appears, read: 0.334 mg/kg SC i.v., 48 U BChE at 1 min, 3 min following SC injection.

Take `C[N+](C)(C)CCOC(=O)CCC(=O)OCC[N+](C)(C)C` [SC, succinylcholine]: the LD100 in the data set on guinea pigs was 0.334 mg/kg. In addition, the LD50 in the data set on mice is 0.28 mg/kg.

B1: WT BChE (protein, UniProt P06276 29-602, looked up)
Cholinesterase: EDDIIIATKNGKVRGMNLTVFGGTVTAFLGIPYAQPPLGRLRFKKPQSLTKWSDIWNATKYANSCCQNIDQSFPGFHGSEMWNPNTDLSEDCLYLNVWIPAPKPKNATVLIWIYGGGFQTGTSSLHVYDGKFLARVERVIVVSMNYRVGALGFLALPGNPEAPGNMGLFDQQLALQWVQKNIAAFGGNPKSVTLFGESAGAASVSLHLLSPGSHSLFTRAILQSGSFNAPWAVTSLYEARNRTLNLAKLTGCSRENETEIIKCLRNKDPQEILLNEAFVVPYGTPLSVNFGPTVDGDFLTDMPDILLELGQFKKTQILVGVNKDEGTAFLVYGAPGFSKDNNSIITRKEFQEGLKIFFPGVSEFGKESILFHYTDWVDDQRPENYREALGDVVGDYNFICPALEFTKKFSEWGNNAFFYYFEHRSSKLPWPEWMGVMHGYEIEFVFGLPLERRDNYTKAEEILSRSIVKRWANFAKYGNPNETQNNSTSWPVFKSTEQKYLTLNTESTRIMTKLRAQQCRFWTSFFPKVLEMTGNIDEAEWEWKAGFHRWNNYMMDWKNQFNDYTSKKESCVGL
Turning to B1, the Michaelis constant (Km) in data set [1] is 4.5 µM; in data set [2] (read-out: KM, succinylcholine) it was 35 µM. Moreover, the “Kcat, succinylcholine” value in data set [2] was 10 s⁻¹.

B2: pBChE (protein, UniProt P06276 29-602, looked up)
Cholinesterase: EDDIIIATKNGKVRGMNLTVFGGTVTAFLGIPYAQPPLGRLRFKKPQSLTKWSDIWNATKYANSCCQNIDQSFPGFHGSEMWNPNTDLSEDCLYLNVWIPAPKPKNATVLIWIYGGGFQTGTSSLHVYDGKFLARVERVIVVSMNYRVGALGFLALPGNPEAPGNMGLFDQQLALQWVQKNIAAFGGNPKSVTLFGESAGAASVSLHLLSPGSHSLFTRAILQSGSFNAPWAVTSLYEARNRTLNLAKLTGCSRENETEIIKCLRNKDPQEILLNEAFVVPYGTPLSVNFGPTVDGDFLTDMPDILLELGQFKKTQILVGVNKDEGTAFLVYGAPGFSKDNNSIITRKEFQEGLKIFFPGVSEFGKESILFHYTDWVDDQRPENYREALGDVVGDYNFICPALEFTKKFSEWGNNAFFYYFEHRSSKLPWPEWMGVMHGYEIEFVFGLPLERRDNYTKAEEILSRSIVKRWANFAKYGNPNETQNNSTSWPVFKSTEQKYLTLNTESTRIMTKLRAQQCRFWTSFFPKVLEMTGNIDEAEWEWKAGFHRWNNYMMDWKNQFNDYTSKKESCVGL
Take B2: the “turnover number Kcat=Vmax/[BChE]T, succinylcholine hydrolysis” value in data set [3] ([BChE]=4.74 nM) was determined as 8.6 ± 0.55 s⁻¹. The “Vmax, succinylcholine hydrolysis” value in data set [3] ([BChE]=4.74 nM, ±SEM, nonlinear regression) is 2.45 ± 0.16 µM/min. For the same molecule, in data set [3] (±SEM, nonlinear regression), the “Kss (dissociation constant of substrate from peripheral binding site)” value came to 2.0 ± 0.3 mM. Further, the Michaelis-Menten constant (Km) in data set [3] (±SEM, nonlinear regression, read-out: KM, succinylcholine hydrolysis) came out at 57 ± 7 µM. Besides, the “b (substrate activation factor)” value in data set [3] (±SEM, substrate activation when b>1) is 2.9±0.1. In the data set with SC-induced apnea [4] (1 mg/kg SC i.v., 15 U (0.6 mg/kg) pBChE at 3 min, three mice), the survival result is on record as “survived; also recorded: survival of all pBChE-treated mice”. Also, the “protection from SC-induced apnea” value in the data set on SC-induced apnea [4] (respiration rate monitored, FIG. 19) was “protects mice from SC-induced apnea”. In the data set on SC-induced apnea [5] (setting [6]), the heart rate entry is on record as “at baseline”, the spontaneous respirations result is “return of spontaneous respirations” and the venous oxygenation is reported as 49%. The heart rate response result in the data set on SC-induced apnea [5] (0.334 mg/kg SC i.v., 48 U BChE at 1 min, 5 min post SC injection) is recorded as “post-anoxic tachycardia”. Also, in the data set on SC-induced apnea [5] (0.334 mg/kg SC i.v., 48 U BChE at 1 min, time post SC injection), the “time by which all vital signs had returned to baseline” value was not above 7 min. Moreover, in the data set with SC-induced apnea [5] (high-dose SC, FIG. 21), the “protection from high-dose SC-induced apnea” value is given as “fully protects”. For the same molecule, in the data set on SC-induced apnea [5] (sublethal doses of SC, FIG. 20), the “return of normal vital signs” value is reported as “promotes return of normal vital signs”.
